According to patent US20090318338:

Tested on: RSK2
Sequence (chain, as listed by the source): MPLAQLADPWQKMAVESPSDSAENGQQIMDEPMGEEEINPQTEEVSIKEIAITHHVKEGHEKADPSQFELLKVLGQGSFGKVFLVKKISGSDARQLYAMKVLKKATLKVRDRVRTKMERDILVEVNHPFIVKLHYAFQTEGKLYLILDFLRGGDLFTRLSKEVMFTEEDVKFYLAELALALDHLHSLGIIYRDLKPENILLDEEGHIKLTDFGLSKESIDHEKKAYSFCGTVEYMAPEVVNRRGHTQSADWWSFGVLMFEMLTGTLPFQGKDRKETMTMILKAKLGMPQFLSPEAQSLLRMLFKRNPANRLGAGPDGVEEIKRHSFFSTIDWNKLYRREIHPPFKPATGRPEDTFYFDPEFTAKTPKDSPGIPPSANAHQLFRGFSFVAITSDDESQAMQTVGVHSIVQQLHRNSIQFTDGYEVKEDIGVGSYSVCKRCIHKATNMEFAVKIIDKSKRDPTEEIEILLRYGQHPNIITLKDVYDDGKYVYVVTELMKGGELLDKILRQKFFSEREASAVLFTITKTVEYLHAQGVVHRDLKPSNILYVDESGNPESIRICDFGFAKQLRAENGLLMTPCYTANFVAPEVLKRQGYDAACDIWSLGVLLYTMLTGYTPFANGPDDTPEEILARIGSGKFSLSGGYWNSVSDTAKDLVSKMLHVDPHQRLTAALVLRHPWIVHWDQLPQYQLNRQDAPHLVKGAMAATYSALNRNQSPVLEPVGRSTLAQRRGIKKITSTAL

WWP1
RSK2 ubiquitination: WWP1 can promote low levels of RSK2 ubiquitination
